From patent US20250108100A1, “C-TERMINAL FRAGMENT OF APOLIPOPROTEIN E AND APPLICATION THEREOF IN INHIBITING y-SECRETASE ACTIVITY” (SYNPHATEC (SHANGHAI) BIOPHARMACEUTICAL TECHNOLOGY CO., LTD., priority 2022, published 2025)

System: human APP and β-secretase co-expressed in HEK 293T cells
Experiment: HEK 293T cells co-expressing APP and β-secretase (BACE1): Aβ ELISA and β-CTF Western blot
Assay type: cell-based
Conditions: APP and β-secretase co-expressed, ELISA, vs GFP control
Description: The experiment was performed according to the standard procedure in the ELISA analysis kit of Invitrogen Company. • a) The target protein was expressed in HEK 293T cell line. Cells were subcultured one day before transfection, and transfection was performed when the degree of cell adhesion reached 70%-80%. The transfection reagent was lipofectamine2000 (ThermoFisher). • b) 4-6 hours post transfection, medium were replaced with fresh cell culture medium. • c) 36-48 hours post transfection, the cell culture medium was collected, and then the ELISA process was performed or the cell culture medium was frozen in a −80° C. refrigerator. • d) 50 μl of standard samples and experimental samples were added to each well of the 96-well plate. • e) 50 μl of human-derived Aβ40 or Aβ42 or mouse-derived Aβ40 detection antibody was added to each well of the 96-well plate. • f) The above samples were shaken gently and placed at room temperature for 3 hours. • g) The liquid in the well were removed, and the plate was washed 4 times with 1× wash buffer. • h) 100 μl of the buffer containing 1× anti-Rabbit IgG HRP was added. • i) The plate was shaken gently and placed at room temperature for […]. • j) The liquid in the well were removed, and the well was washed 4 times with 1× wash buffer. • k) 100 μl of Stabilized Chromogen was added to each well, and the plate was placed in the dark for 30 minutes at room temperature. • l) 100 μl of Stop Solution was added to each well. • m) The absorbance at 450 nm was measured with a microplate reader. 2.4 qRT-PCR
48 hours after transfection of HEK 293T cells and N2A cells, or 4.5 days after lentivirus infection of neurons, media and lysates were collected. Aβ40 and Aβ42 in the culture medium and cell lysates were detected by an Aβ ELISA kit as indicated in the protocol. (Invitrogen Technology; KHB3481 for human Aβ40, KHB3441 for human Aβ42 and KMB3481 for mouse Aβ40).
Data were analyzed by GraphPad Prism software (v6) using unpaired, paired, or one-sample t-tests. Aβ40 and Aβ42 levels were normalized to the corresponding GFP controls. α-CTF levels were normalized to FL-APP and corresponding GFP controls. All data are represented as mean±SEM. Statistical significance was defined as p<0.05. One, two, three and four stars (*) in the graph indicate p-values <0.05, <0.01, <0.001 and <0.0001, respectively.

B1: CT NA4: SEQ ID NO: 16; ApoE CT with 4 original ApoE residues added to the N-terminus (protein)
chain: ERLRARMEEMGSRTRDRLDEVKEQVAEVRAKLEEQAQQIRLQAEAFQARLKSWFEPLVEDMQRQWAGLVEKVQAAVGTSAAPVPSDNH
production of Aβ40: completely lost the ability to reduce Aβ

B2: CT NA2: SEQ ID NO: 14; ApoE CT with 2 original ApoE residues added to the N-terminus (protein)
chain: LRARMEEMGSRTRDRLDEVKEQVAEVRAKLEEQAQQIRLQAEAFQARLKSWFEPLVEDMQRQWAGLVEKVQAAVGTSAAPVPSDNH
production of Aβ40: completely lost the ability to reduce Aβ

B3: CT ND1: SEQ ID NO: 18; ApoE CT with 1 N-terminal amino acid deleted (protein)
chain: RMEEMGSRTRDRLDEVKEQVAEVRAKLEEQAQQIRLQAEAFQARLKSWFEPLVEDMQRQWAGLVEKVQAAVGTSAAPVPSDNH
production of Aβ40: can still reduce Aβ40

B4: CT ND3: SEQ ID NO: 20; ApoE CT with 3 N-terminal amino acids deleted (protein)
chain: EEMGSRTRDRLDEVKEQVAEVRAKLEEQAQQIRLQAEAFQARLKSWFEPLVEDMQRQWAGLVEKVQAAVGTSAAPVPSDNH
production of Aβ40: can still reduce Aβ40

B5: CT ND3CD11: SEQ ID NO: 26; ApoE CT minus 3 N-terminal and 11 C-terminal residues (protein)
chain: EEMGSRTRDRLDEVKEQVAEVRAKLEEQAQQIRLQAEAFQARLKSWFEPLVEDMQRQWAGLVEKVQAAVG
production of Aβ40: can still significantly reduce Aβ40

B6: CT CD10: SEQ ID NO: 24; ApoE CT with 10 C-terminal amino acids deleted (protein)
chain: ARMEEMGSRTRDRLDEVKEQVAEVRAKLEEQAQQIRLQAEAFQARLKSWFEPLVEDMQRQWAGLVEKVQAAVGT
production of Aβ40: still reduce the production of Aβ

B7: CT ND3CD10: SEQ ID NO: 25; ApoE CT minus 3 N-terminal and 10 C-terminal residues (protein)
chain: EEMGSRTRDRLDEVKEQVAEVRAKLEEQAQQIRLQAEAFQARLKSWFEPLVEDMQRQWAGLVEKVQAAVGT
production of Aβ40: can still significantly reduce Aβ40

B8: CT NA5: SEQ ID NO: 17; ApoE CT with 5 original ApoE residues added to the N-terminus (protein)
chain: GERLRARMEEMGSRTRDRLDEVKEQVAEVRAKLEEQAQQIRLQAEAFQARLKSWFEPLVEDMQRQWAGLVEKVQAAVGTSAAPVPSDNH
production of Aβ40: completely lost the ability to reduce Aβ

B9: CT ND5: SEQ ID NO: 22; ApoE CT with 5 N-terminal amino acids deleted (protein)
chain: MGSRTRDRLDEVKEQVAEVRAKLEEQAQQIRLQAEAFQARLKSWFEPLVEDMQRQWAGLVEKVQAAVGTSAAPVPSDNH
production of Aβ40: can still reduce Aβ40

B10: CT NA3: SEQ ID NO: 15; ApoE CT with 3 original ApoE residues added to the N-terminus (protein)
chain: RLRARMEEMGSRTRDRLDEVKEQVAEVRAKLEEQAQQIRLQAEAFQARLKSWFEPLVEDMQRQWAGLVEKVQAAVGTSAAPVPSDNH
production of Aβ40: completely lost the ability to reduce Aβ

B11: CT ND4: SEQ ID NO: 21; ApoE CT with 4 N-terminal amino acids deleted (protein)
chain: EMGSRTRDRLDEVKEQVAEVRAKLEEQAQQIRLQAEAFQARLKSWFEPLVEDMQRQWAGLVEKVQAAVGTSAAPVPSDNH
production of Aβ40: can still reduce Aβ40

B12: CT ND3CD14: SEQ ID NO: 29; ApoE CT minus 3 N-terminal and 14 C-terminal residues (protein)
chain: EEMGSRTRDRLDEVKEQVAEVRAKLEEQAQQIRLQAEAFQARLKSWFEPLVEDMQRQWAGLVEKVQA
production of Aβ40: can still significantly reduce Aβ40

B13: CT NA1: SEQ ID NO: 13; ApoE CT with 1 original ApoE residue added to the N-terminus (protein)
chain: RARMEEMGSRTRDRLDEVKEQVAEVRAKLEEQAQQIRLQAEAFQARLKSWFEPLVEDMQRQWAGLVEKVQAAVGTSAAPVPSDNH
production of Aβ40: still reduces the production of Aβ40

B14: CT CD5: SEQ ID NO: 23; ApoE CT with 5 C-terminal amino acids deleted (protein)
chain: ARMEEMGSRTRDRLDEVKEQVAEVRAKLEEQAQQIRLQAEAFQARLKSWFEPLVEDMQRQWAGLVEKVQAAVGTSAAPV
production of Aβ40: still reduce the production of Aβ

B15: CT ND2: SEQ ID NO: 19; ApoE CT with 2 N-terminal amino acids deleted (protein)
chain: MEEMGSRTRDRLDEVKEQVAEVRAKLEEQAQQIRLQAEAFQARLKSWFEPLVEDMQRQWAGLVEKVQAAVGTSAAPVPSDNH
production of Aβ40: can still reduce Aβ40

B16: CT ND3CD20: SEQ ID NO: 31; ApoE CT minus 3 N-terminal and 20 C-terminal residues (protein)
chain: EEMGSRTRDRLDEVKEQVAEVRAKLEEQAQQIRLQAEAFQARLKSWFEPLVEDMQRQWAGL
production of Aβ40: can still significantly reduce Aβ40

B17: CT ND3CD13: SEQ ID NO: 28; ApoE CT minus 3 N-terminal and 13 C-terminal residues (protein)
chain: EEMGSRTRDRLDEVKEQVAEVRAKLEEQAQQIRLQAEAFQARLKSWFEPLVEDMQRQWAGLVEKVQAA
production of Aβ40: can still significantly reduce Aβ40

B18: CT ND3CD15: SEQ ID NO: 30; ApoE CT minus 3 N-terminal and 15 C-terminal residues (protein)
chain: EEMGSRTRDRLDEVKEQVAEVRAKLEEQAQQIRLQAEAFQARLKSWFEPLVEDMQRQWAGLVEKVQ
production of Aβ40: can still significantly reduce Aβ40

B19: CT ND3CD12: SEQ ID NO: 27; ApoE CT minus 3 N-terminal and 12 C-terminal residues (protein)
chain: EEMGSRTRDRLDEVKEQVAEVRAKLEEQAQQIRLQAEAFQARLKSWFEPLVEDMQRQWAGLVEKVQAAV
production of Aβ40: can still significantly reduce Aβ40
